Assay results as given in patent US20170165373A1 (Amgen, published 2017).
Residue numbers refer to the chain shown, from its start. Names and notes keep the numbering of the source.

B1: 40D7 (antibody, V domains shown)
VH: EVQLLESGGALVQPGGSLRLSCAASGFTFSSYAMNWVRQAPGKGLEWVSAISVGGDTYYADSVKGRFTISRDNSKNTLYLQMNSLRAEDTAVYYCAKDQVTMVRGVWYYYGLDVWGQGTTVTVSS
VL: DIVMIQSPLSLPVTPGEPASISCRSSQSLLHSNGNNFLDWYLQKPGQSPHLLISLGSNRTSGVPDRLSGSGSGTDFTLKISRVEAEDVGIYYCMQALRPPRRFGQGTKLEIKR
notes: also called Ab-17; 40D7.1
B2: 33D4 (antibody, V domains shown)
VH: QVQLQQSGPGLVKPSQTLSLTCAISGDSVSSTNVAWNWIRQSPSRGLEWLGGTFYRSNWYNDYAISVKSRITINPDTSKNQFSLQLNSVTPEDTAVYYCARFYSWNSYFDYWGQGILVTVSS
VL: QPVLTQPPSASASLGASVTLTCTLSSGYSNYKVDWYQHRPGKGPRFVMRVGTGGIVGSKGDGIPDRFSVLGSGLNRYLTIKNIQEEDESDFHCGADHGSETNFVYVFGTGTKVTVLG
notes: Tested as purified hybridoma IgG2 or IgG4; also called Ab-14; 33D4.1
B3: 2A1 Covariance 4 (2A1_D84N + C107T) (antibody, human IgG1, lambda, V domains shown)
VH: EVQLVESGGGLVKPGRSLRLSCTASGFTFGDYALSWFRQAPGKGLEWVGVSRSKAYGGTTDYAASVKGRFTISRDNSKSFAYLQMNSLKTEDTAVYYCTSSGYSSGWTPFDYWGQGTLVTVSS
VL: not shown
B4: 2A1 Covariance 5 (2A1_F88T + C107T) (antibody, human IgG1, lambda, V domains shown)
VH: B3 VH with N76D, F80T
VL: not shown
B5: 2A1 Covariance 6 (2A1_C107A) (antibody, human IgG1, lambda, V domains shown)
VH: B3 VH with N76D, T99A
VL: not shown
B6: 2A1 Covariance 7 (2A1_S108K + C107T) (antibody, human IgG1, lambda, V domains shown)
VH: B3 VH with N76D, S100K
VL: not shown
B7: 2A1 Covariance 11 (2A1_F44V + C107A + S108K) (antibody, human IgG1, lambda, V domains shown)
VH: B3 VH with F37V, N76D, T99A, S100K
VL: not shown
B8: 2A1 Covariance 12 (2A1_T24A + F44V + F88T + C107T) (antibody, human IgG1, lambda, V domains shown)
VH: B3 VH with T23A, F37V, N76D, F80T
VL: not shown
B9: 2A1 Covariance 13 (2A1_F44V + F88T + C107A) (antibody, human IgG1, lambda, V domains shown)
VH: B3 VH with F37V, N76D, F80T, T99A
VL: not shown
B10: 2A1 Covariance 14 (2A1_T24A + F44V + F88T + C107A) (antibody, human IgG1, lambda, V domains shown)
VH: B3 VH with T23A, F37V, N76D, F80T, T99A
VL: not shown
B11: 1E1-PEG4-Mal-DM4 (antibody drug conjugate) (other)
VH: QVQLVQSGAEVKKPGASVKVSCKASGYTFTGHYIHWVRQAPGQGLEWMGWIYPNSGGTNYAQKFQGRVTMTRDTSISTAYMELSRLRSDDSAVYYCAREGMVTGDYYYYRMDVWGQGTTVIVSS
VL: B2 VL with T23S, H38Q, T52I, E100G, T101N
modifications: antibody carries DM4 through the PEG4-Mal linker; sites not stated
B12: 1E1-MCC-DM1 (antibody drug conjugate) (other)
VH: B11 VH
VL: B2 VL with T23S, H38Q, T52I, E100G, T101N
modifications: antibody carries DM1 through the MCC linker; sites not stated
B13: 32B5-MCC-DM1 (antibody drug conjugate) (other)
VH: B1 VH with Q81H, M82V, R86S, T90S, M102L
VL: B1 VL with D1V, M4L, F37Y, L67F, I90F, R98Q
modifications: antibody carries DM1 through the MCC linker; sites not stated
B14: 32B5 (antibody, V domains shown)
VH: B1 VH with Q81H, M82V, R86S, T90S, M102L
VL: B1 VL with D1V, M4L, F37Y, L67F, I90F, R98Q
notes: 32B5.1 was purified hybridoma IgG2 or IgG4; later converted to human IgG1; also called Ab-10; 32B5.1
B15: 35D2 (antibody, V domains shown)
VH: B1 VH with D56G, Q81H, M82V
VL: B1 VL with D1V, M4L, F37Y, L67F, I90F, R98Q
notes: also called Ab-15; 35D2.1
B16: 37B2 (antibody, V domains shown)
VH: B1 VH with S31N, Q81H, M82V, R86S, T90S, M102L
VL: B1 VL with D1V, M4L, F37Y, L67F, I90F, R98Q
notes: Tested as purified hybridoma IgG2 or IgG4; also called Ab-16; 37B2.1
B17: 30E1 (antibody, V domains shown)
VH: EVQLLESGGGLVQPGGSLRLSCAASGFTFSSHAMSWVRQAPGKGLEWVSAISGGDGNTYYADSVKGRFAISRDNSKNVVYLQMNSLRAEDTAVYFCAKDLVGVVAGYYYYFGMDVWGQGTTVTVSS
VL: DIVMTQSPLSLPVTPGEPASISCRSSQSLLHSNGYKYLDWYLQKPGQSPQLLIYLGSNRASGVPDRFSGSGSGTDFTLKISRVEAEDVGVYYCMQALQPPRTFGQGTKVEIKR
notes: Tested as purified hybridoma IgG2 or IgG4; also called Ab-9; 30E1.1
B18: 32H3 (antibody, V domains shown)
VH: EVQLLESGGGLVQPGGSLRLSCAASGFTFSSYAMSWVRQAPGKGLKWVSAISGGAGNTYYADSVKGRFTISRDISKSTVYLQMTSLRAEDTAIYYCAKDGVGTTGGYFYYHGMDVWGQGTTVTVSS
VL: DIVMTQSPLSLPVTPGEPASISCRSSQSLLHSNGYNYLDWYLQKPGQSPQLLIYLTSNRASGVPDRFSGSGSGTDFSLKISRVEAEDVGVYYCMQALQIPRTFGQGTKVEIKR
notes: Tested as purified hybridoma IgG2 or IgG4; also called Ab-12; 32H3.1
B19: 33C7 (antibody, V domains shown)
VH: B1 VH with Q81H, M82V, R86S, T90S, M102L
VL: B1 VL with D1V, M4L, F37Y, L67F, I90F, R98Q
notes: Tested as purified hybridoma IgG2 or IgG4; also called Ab-11; 33C7_HC#1
B20: 29C12 (antibody, V domains shown)
VH: B1 VH
VL: B1 VL with F37Y, L67F, I90V, R98Q
notes: also called Ab-8; 29C12.1
B21: 32B5 (N69Q) (antibody, human IgG1, kappa, V domains shown)
VH: B1 VH with Q81H, M82V, R86S, T90S, M102L
VL: B1 VL with D1V, M4L, F37Y, N58Q, L67F, I90F, R98Q
notes: also called 32B5 (LC: N69Q); P70169.3
B22: 32B5 (T71A) (antibody, human IgG1, kappa, V domains shown)
VH: B1 VH with Q81H, M82V, R86S, T90S, M102L
VL: B1 VL with D1V, M4L, F37Y, T60A, L67F, I90F, R98Q
notes: also called 32B5 (LC: T71A); P70170.3

target: T1, cynomolgus BCMA, on transiently transfected 293T cells (cynomolgus (Macaca fascicularis), UniProt Q02223 1-184 (human entry)); assay: FACS
T1 construct: also called cyno BCMA
T1 sequence (Q02223 other isoform, or with tags, fused parts or gaps): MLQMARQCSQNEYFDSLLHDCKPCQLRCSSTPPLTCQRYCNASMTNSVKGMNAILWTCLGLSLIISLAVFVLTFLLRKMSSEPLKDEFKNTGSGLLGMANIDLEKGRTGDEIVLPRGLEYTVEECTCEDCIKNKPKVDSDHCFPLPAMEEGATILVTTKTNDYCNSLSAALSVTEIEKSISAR

Going from B1 to B2, the MFI falls from 39300 to 19400.

target: T2, TACI, full length, on transiently transfected cells (human, UniProt O14836 1-293); assay: FACS
T2 construct: whole, on cells; also called huTACI
T2 sequence (looked up): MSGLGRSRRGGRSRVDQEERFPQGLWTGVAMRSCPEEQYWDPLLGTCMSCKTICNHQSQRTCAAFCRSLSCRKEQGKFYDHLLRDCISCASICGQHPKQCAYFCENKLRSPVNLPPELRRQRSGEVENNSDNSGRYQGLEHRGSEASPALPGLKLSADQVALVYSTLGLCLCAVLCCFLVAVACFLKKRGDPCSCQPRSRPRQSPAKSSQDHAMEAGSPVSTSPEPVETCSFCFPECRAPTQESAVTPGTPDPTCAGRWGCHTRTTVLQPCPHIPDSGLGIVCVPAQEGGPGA

Going from B1 to B2, the MFI falls from 1390 to 261.

B1: no binding.
B2: no binding.

Target: T3, human BCMA (huBCMA), full length, on cells (human, UniProt Q02223 1-184)
T3 construct: also called native huBCMA; B-cell maturation antigen
T3 chain: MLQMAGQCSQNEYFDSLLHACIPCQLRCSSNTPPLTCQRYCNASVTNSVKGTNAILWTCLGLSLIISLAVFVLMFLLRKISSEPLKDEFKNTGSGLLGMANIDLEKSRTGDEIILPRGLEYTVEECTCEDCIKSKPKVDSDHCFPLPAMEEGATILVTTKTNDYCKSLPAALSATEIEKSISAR
Assay: FACS

First: B1
Second: B2
The MFI of the first is lower: 36300 for the first, 89900 for the second.

target: T4, BAFF-R, full length, on transiently transfected cells (human, UniProt Q96RJ3 1-184); assay: FACS
T4 construct: whole, on cells; also called huBAFF-R
T4 sequence (looked up): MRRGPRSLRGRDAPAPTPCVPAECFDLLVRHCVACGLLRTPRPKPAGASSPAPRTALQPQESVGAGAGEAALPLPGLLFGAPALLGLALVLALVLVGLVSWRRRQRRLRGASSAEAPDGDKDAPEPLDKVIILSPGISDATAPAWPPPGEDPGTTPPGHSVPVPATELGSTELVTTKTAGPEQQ

B2 showed an MFI of 723.

B2: no binding.

Target: T3, human BCMA (huBCMA), full length, on …
Assay: cell-based or functional assay

First: B3
Second: B4
The “ADCC EC50” value of the first is 1.8-fold higher: 0.028 µg/mL for the first, 0.016 µg/mL for the second.

B5 and B6 are within 1.5-fold of each other in “ADCC EC50” value: 0.0169 µg/mL for the first, 0.0191 µg/mL for the second.

Going from B7 to B8, the “ADCC EC50” value falls from 0.364 µg/mL to 0.111 µg/mL (3.3-fold).

B9 and B10 are within 1.5-fold of each other in “ADCC EC50” value: 0.0327 µg/mL for the first, 0.0417 µg/mL for the second.

Target: T3, human BCMA (huBCMA), full length, on …
Assay: cell-based or functional assay
Remark: another data set of the same source

B11 and B12 are within 1.5-fold of each other in “cell viability IC50 (CellTiter-Glo, 96 h), H929 cells” value: 0.68 nM for the first, 0.63 nM for the second.

B13 was tested, and the “H929 cell growth inhibition IC50 (CellTiter-Glo, 96 h)” value was 0.506 nM.

Target: T3, human BCMA (huBCMA), full length, on …
Assay: APRIL blocking FACS
Design: concentration or dose not given beside the values

Compared with B14, B15 is lower in “% Inhibition n=1” value: 87% for the first, 57% for the second.

Going from B16 to B17, the “% Inhibition n=1” value falls from 37% to 31%.

First: B18
Second: B19
The “% Inhibition n=1” value of the first is lower: 20% for the first, 68% for the second.

In the case of B20, the “% Inhibition n=1” value is reported as 30%.

Going from B14 to B15, the “% Inhibition n=2” value falls from 116% to 82%.

Compared with B16, B17 is lower in “% Inhibition n=2” value: 58% for the first, 46% for the second.

Going from B18 to B19, the “% Inhibition n=2” value rises from 47% to 88%.

B20 was tested, and the “% Inhibition n=2” value was 62%.

Going from B14 to B15, the “Avg. % Inhibition” value falls from 101% to 70%.

Compared with B16, B17 is lower in “Avg. % Inhibition” value: 48% for the first, 38% for the second.

Compared with B18, B19 is higher in “Avg. % Inhibition” value: 33% for the first, 78% for the second.

For B20, the “Avg. % Inhibition” value was 46%.

target: T1, cynomolgus BCMA, on transiently …; assay: FACS; remark: another data set of the same source

First: B14
Second: B15
The MFI of the first is higher: 259000 for the first, 198000 for the second.

Compared with B16, B17 is lower in MFI: 136000 for the first, 78500 for the second.

First: B18
Second: B19
The MFI of the first is lower: 51200 for the first, 238000 for the second.

In the case of B20, the MFI is reported as 97300.

target: T2, TACI, full length, on transiently …; assay: FACS; remark: another data set of the same source

Compared with B14, B15 is higher in MFI: 274 for the first, 506 for the second.

Compared with B16, B17 is lower in MFI: 1040 for the first, 555 for the second.

Going from B18 to B19, the MFI rises from 1360 to 1890.

B20 gave an MFI of 256.

B14: no binding.
B15: no binding.
B16: no binding.
B17: no binding.
B18: no binding.
B19: no binding.
B20: no binding.

Target: T3, human BCMA (huBCMA), full length, on …
Assay: FACS
Remark: another data set of the same source

Going from B14 to B15, the MFI falls from 137000 to 129000.

Compared with B16, B17 is higher in MFI: 83700 for the first, 109000 for the second.

Compared with B18, B19 is higher in MFI: 97700 for the first, 132000 for the second.

Work on B20 yielded an MFI of 82600.

Target: T3, human BCMA (huBCMA), full length, on …
Assay: FACS, H929 cells

B21: binds.
B22: binds.

Target: T3, human BCMA (huBCMA), full length, on …
Assay: FACS on H929 cells, native BCMA, relative binding, indirect

Going from B13 to B14, the EC50 falls from 7 nM to 4.2 nM (1.7-fold). The second is the more potent here.

target: T1, cynomolgus BCMA, on transiently …; assay: FACS O/N

Compared with B14, B15 is higher in MFI: 108 for the first, 152 for the second.

Compared with B16, B17 is higher in MFI: 104 for the first, 130 for the second.

First: B18
Second: B19
The MFI of the first is higher: 122 for the first, 109 for the second.

For B20, the MFI was 110.
